These results are taken from patent US20210403547A1.

This test addresses membrane-bound ligands (TGF-alpha and Epiregulin) on HT-29 cells. Kind of test: cell-based or functional assay.

For the substance Control IgG (antibody), the Mean Ringspot Total Intensity of Fluorescence (internalization into HT-29 cells), 40 ug/mL, 0 min post addition worked out at 94; the Mean Ringspot Total Intensity of Fluorescence (internalization into HT-29 cells), 40 ug/mL, 5 min post addition is 116; the Mean Ringspot Total Intensity of Fluorescence (internalization into HT-29 cells), 40 ug/mL, 15 min post addition worked out at 126; the Mean Ringspot Total Intensity of Fluorescence (internalization into HT-29 cells), 40 ug/mL, 30 min post addition is 124. The Mean Ringspot Total Intensity of Fluorescence (internalization into HT-29 cells), 40 ug/mL, 60 min post addition was found to be 167; the Mean Ringspot Total Intensity of Fluorescence (internalization into HT-29 cells), 40 ug/mL, 120 min post addition came to 177; the Mean Ringspot Total Intensity of Fluorescence (internalization into HT-29 cells), dose 0.34 ug/ml, 2 h at 37 C is 1410; the Mean Ringspot Total Intensity of Fluorescence (internalization into HT-29 cells), dose 0.69 ug/ml, 2 h at 37 C amounted to 1480. The same substance registered a Mean Ringspot Total Intensity of Fluorescence (internalization into HT-29 cells), dose 1.38 ug/ml, 2 h at 37 C of 1470; a Mean Ringspot Total Intensity of Fluorescence (internalization into HT-29 cells), dose 2.75 ug/ml, 2 h at 37 C of 1570; a Mean Ringspot Total Intensity of Fluorescence (internalization into HT-29 cells), dose 5.5 ug/ml, 2 h at 37 C of 1360; a Mean Ringspot Total Intensity of Fluorescence (internalization into HT-29 cells), dose 11 ug/ml, 2 h at 37 C of 1390. This substance yielded a Mean Ringspot Total Intensity of Fluorescence (internalization into HT-29 cells), dose 22 ug/ml, 2 h at 37 C of 1760; a Mean Ringspot Total Intensity of Fluorescence (internalization into HT-29 cells), dose 44 ug/ml, 2 h at 37 C of 1810; a Mean Ringspot Total Intensity of Fluorescence (internalization into HT-29 cells), dose 88 ug/ml, 2 h at 37 C of 2440.
